Legend:
[1] = biological target: T1, XIAP (Homo sapiens, UniProt P98170); assay: Cytochrome c-dependent caspase-3 activation in 293T S100 extracts containing XIAP (DEVD-AMC); assay type: biochemical; settings: 25, 100 and 500 μM peptide, XIAP 10 nM, cytochrome c and dATP
T1 construct: made in house; host or cells: in vitro translation (cell-free)
Protocol: The activity of caspase-3 in the S100 extracts was measured using the peptide substrate DEVD-AMC.

[2] = biological target: T1, XIAP; assay: Far Western blot analysis with 35S-labeled XIAP; assay type: binding; settings: for binding of XIAP by Far Western: proteins on nitrocellulose membrane, denatured and renatured; for ability to interact with BIR3 (Far western, FIG. 12B): recombinant caspase-9 mutants
[3] = biological target: T2, E314S mutant BIR3 domain of XIAP (Homo sapiens, UniProt P98170, E314S); assay: Interaction of GST fusion proteins with 35S-labeled E314S mutant BIR3; assay type: binding; settings: compared with WT BIR3
T2 construct: made in house
Description: (§1) The C-terminal GST fusion proteins were expressed in bacteria and then immobilized onto glutathione-affinity resin. […] The caspase-9 deletion mutants used in these studies are represented by bar diagrams above the panel in FIG. 10.

[4] = biological target: T3, X-linked inhibitor of apoptosis protein (XIAP), full length (UniProt P98170 1-497); assay: Far western with 35S-labeled XIAP
T3 construct: Used as in vitro translated 35S-labeled full length XIAP (pull-down, Far western) or as purified XIAP (holoenzyme experiments); also called full length XIAP; 35S-labeled XIAP

[5] = biological target: T4, isolated BIR3 domain of XIAP, P98170
T4 chain: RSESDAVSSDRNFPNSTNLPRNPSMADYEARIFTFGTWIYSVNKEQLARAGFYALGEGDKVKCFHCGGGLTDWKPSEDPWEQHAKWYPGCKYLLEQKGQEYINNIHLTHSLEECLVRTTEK

[6] = biological target: T3, X-linked inhibitor of apoptosis protein …; assay: gel filtration on Superose 6 and immunoblot of fractions
[7] = biological target: T5, full length XIAP (Homo sapiens, UniProt P98170); assay: In vitro interaction assay of GST fusion proteins with 35S-labeled XIAP; assay type: binding; settings: for interaction with full length XIAP: C-terminal GST fusion proteins immobilized onto glutathione-affinity resin
T5 construct: full length XIAP or the isolated BIR3 domain of XIAP; made in house; host or cells: in vitro translation (cell-free)
Description: as §1

[8] = biological target: T6, isolated BIR3 domain of XIAP (Homo sapiens, UniProt P98170); assay: In vitro interaction assay of GST fusion proteins with 35S-labeled BIR3; assay type: binding; settings: for interaction with isolated BIR3 domain of XIAP: C-terminal GST fusion proteins immobilized onto glutathione-affinity resin
T6 construct: full length XIAP or the isolated BIR3 domain of XIAP; made in house; host or cells: in vitro translation (cell-free)
Description: as §1

[9] = biological target: T7, isolated BIR3 domain of XIAP (UniProt P98170 238-358, limits assumed); assay: method not stated
T7 construct: domain: BIR3; In vitro translated 35S-labeled BIR3 in pull-downs; purified XIAP-BIR3 in enzyme assays; also called XIAP-BIR3; WT BIR3

[10] = less than p12 and linker peptide

In the case of ATPFQ (listed as Homo sapiens) [p12-N5], the “promoting caspase-3 activation in XIAP containing extracts” value [1] is reported as “as effective in promoting caspase-3 activation as the Smac-N5 or N7 peptides”.

B1: Smac-GST: mature Smac/DIABLO GST-fusion protein (protein)
chain: AVPIAQKSEPHSLSSEALMRRAVSLVTDSTSTFLSQTTYALIEAITEYTKAVYTLTSLYRQYTSLLGKMNSEEEDEVWQVIIGARAEMTSKHQEYLKLETTWMTAVGLSEMAAEAAYQTGADQASITARNHIQLVKLQVEEVHQLSRKAETKLAEAQIEELRQKTQEEGEERAESEQEAYLRED
modifications: left off: a dimerising Fc or GST
notes: mature Smac/DIABLO GST-fusion protein
B1 was tested, and the “binding of XIAP by Far Western” value [2] was “able to bind” and the “binding to E314S mutant BIR3” value [3] was “abrogated binding”.

B2: single mutant (D315A) caspase-9 (enzyme)
chain: MDEADRRLLRRCRLRLVEELQVDQLWDALLSRELFRPHMIEDIQRAGSGSRRDQARQLIIDLETRGSQALPLFISCLEDTGQDMLASFLRTNRQAAKLSKPTLENLTPVVLRPEIRKPEVLRPETPRPVDIGSGGFGDVGALESLRGNADLAYILSMEPCGHCLIINNVNFCRESGLRTRTGSNIDCEKLRRRFSSLHFMVEVKGDLTAKKMVLALLELAQQDHGALDCCVVVILSHGCQASHLQFPGAVYGTDGCPVSVEKIVNIFNGTSCPSLGGKPKLFFIQACGGEQKDHGFEVASTSPEDESPGSNPEPAATPFQEGLRTFDQLDAISSLPTPSDIFVSYSTFPGFVSWRDPKSGSWYVETLDDIFEQWAHSEDLQSLLLRVANAVSVKGIYKQMPGCFNFLRKKLFFKTS
notes: also called caspase-9 D315A
For B2, the “binding of XIAP by Far Western” value [2] was “not able to bind” and the binding result [4] was “no binding”.

B3: GG: caspase-9 with first two p12 residues Ala-Thr mutated to Gly-Gly (protein, UniProt P55211 1-416, looked up, variant A316G T317G)
chain: MDEADRRLLRRCRLRLVEELQVDQLWDALLSRELFRPHMIEDIQRAGSGSRRDQARQLIIDLETRGSQALPLFISCLEDTGQDMLASFLRTNRQAAKLSKPTLENLTPVVLRPEIRKPEVLRPETPRPVDIGSGGFGDVGALESLRGNADLAYILSMEPCGHCLIINNVNFCRESGLRTRTGSNIDCEKLRRRFSSLHFMVEVKGDLTAKKMVLALLELAQQDHGALDCCVVVILSHGCQASHLQFPGAVYGTDGCPVSVEKIVNIFNGTSCPSLGGKPKLFFIQACGGEQKDHGFEVASTSPEDESPGSNPEPDGGPFQEGLRTFDQLDAISSLPTPSDIFVSYSTFPGFVSWRDPKSGSWYVETLDDIFEQWAHSEDLQSLLLRVANAVSVKGIYKQMPGCFNFLRKKLFFKTS
For B3, the “ability to interact with BIR3 (Far western, FIG. 12B)” value [2] was “lost significantly the ability to interact”.

B4: SG: caspase-9 with first two p12 residues Ala-Thr mutated to Ser-Gly (protein, UniProt P55211 1-416, looked up, variant A316S T317G)
chain: MDEADRRLLRRCRLRLVEELQVDQLWDALLSRELFRPHMIEDIQRAGSGSRRDQARQLIIDLETRGSQALPLFISCLEDTGQDMLASFLRTNRQAAKLSKPTLENLTPVVLRPEIRKPEVLRPETPRPVDIGSGGFGDVGALESLRGNADLAYILSMEPCGHCLIINNVNFCRESGLRTRTGSNIDCEKLRRRFSSLHFMVEVKGDLTAKKMVLALLELAQQDHGALDCCVVVILSHGCQASHLQFPGAVYGTDGCPVSVEKIVNIFNGTSCPSLGGKPKLFFIQACGGEQKDHGFEVASTSPEDESPGSNPEPDSGPFQEGLRTFDQLDAISSLPTPSDIFVSYSTFPGFVSWRDPKSGSWYVETLDDIFEQWAHSEDLQSLLLRVANAVSVKGIYKQMPGCFNFLRKKLFFKTS
With B4 the “ability to interact with BIR3 (Far western, FIG. 12B)” value [2] was “lost significantly the ability to interact”.

B5: double mutant (D315/D330A) caspase-9 (enzyme)
chain: MDEADRRLLRRCRLRLVEELQVDQLWDALLSRELFRPHMIEDIQRAGSGSRRDQARQLIIDLETRGSQALPLFISCLEDTGQDMLASFLRTNRQAAKLSKPTLENLTPVVLRPEIRKPEVLRPETPRPVDIGSGGFGDVGALESLRGNADLAYILSMEPCGHCLIINNVNFCRESGLRTRTGSNIDCEKLRRRFSSLHFMVEVKGDLTAKKMVLALLELAQQDHGALDCCVVVILSHGCQASHLQFPGAVYGTDGCPVSVEKIVNIFNGTSCPSLGGKPKLFFIQACGGEQKDHGFEVASTSPEDESPGSNPEPAATPFQEGLRTFDQLAAISSLPTPSDIFVSYSTFPGFVSWRDPKSGSWYVETLDDIFEQWAHSEDLQSLLLRVANAVSVKGIYKQMPGCFNFLRKKLFFKTS
notes: also called caspase-9 D315/330A
For B5, the “binding of XIAP by Far Western” value [2] was “not able to bind” and the binding result [4] was “no binding”.

B6: SGVD176-179AVPF: caspase-3 with first four residues of p12 substituted with AVPF (protein)
chain 1: SGISLDNSYKMDYPEMGLCIIINNKNFHKSTGMTSRSGTDVDAANLRETFRNLKYEVRNKNDLTREEIVELMRDVSKEDHSKRSSFVCVLLSHGEEGIIFGTNGPVDLKKITNFFRGDRCRSLTGKPKLFIIQACRGTELDCGIETD
chain 2: AVPFDDMACHKIPVEADFLYAYSTAPGYYSWRNSKDGSWFIQSLCAMLKQYADKLEFMHILTRVNRKVATEFESFSFDATFHAKKQIPCIVSMLTKELYFYH
B6 was tested, and the “binding of XIAP by Far Western” value [2] was “enhanced binding”.

B7: caspase-9 linker deletion mutant (residues 316 to 330 of SEQ ID NO:1 deleted) (protein)
chain 1: MDEADRRLLRRCRLRLVEELQVDQLWDALLSRELFRPHMIEDIQRAGSGSRRDQARQLIIDLETRGSQALPLFISCLEDTGQDMLASFLRTNRQAAKLSKPTLENLTPVVLRPEIRKPEVLRPETPRPVDIGSGGFGDVGALESLRGNADLAYILSMEPCGHCLIINNVNFCRESGLRTRTGSNIDCEKLRRRFSSLHFMVEVKGDLTAKKMVLALLELAQQDHGALDCCVVVILSHGCQASHLQFPGAVYGTDGCPVSVEKIVNIFNGTSCPSLGGKPKLFFIQACGGEQKDHGFEVASTSPEDESPGSNPEPD
chain 2: AISSLPTPSDIFVSYSTFPGFVSWRDPKSGSWYVETLDDIFEQWAHSEDLQSLLLRVANAVSVKGIYKQMPGCFNFLRKKLFFKTS
With B7 the “DEVD-AMC cleaving activity in S100 extracts with or without XIAP-BIR3 (20 nM)” value [5] was “the deletion of the linker region did not inhibit enzymatic activity, even in the presence of XIAP-BIR3”.

B8: fully processed wild-type (WT) caspase-9 (enzyme)
chain 1: MDEADRRLLRRCRLRLVEELQVDQLWDALLSRELFRPHMIEDIQRAGSGSRRDQARQLIIDLETRGSQALPLFISCLEDTGQDMLASFLRTNRQAAKLSKPTLENLTPVVLRPEIRKPEVLRPETPRPVDIGSGGFGDVGALESLRGNADLAYILSMEPCGHCLIINNVNFCRESGLRTRTGSNIDCEKLRRRFSSLHFMVEVKGDLTAKKMVLALLELAQQDHGALDCCVVVILSHGCQASHLQFPGAVYGTDGCPVSVEKIVNIFNGTSCPSLGGKPKLFFIQACGGEQKDHGFEVASTSPEDESPGSNPEPD
chain 2: ATPFQEGLRTFDQLDAISSLPTPSDIFVSYSTFPGFVSWRDPKSGSWYVETLDDIFEQWAHSEDLQSLLLRVANAVSVKGIYKQMPGCFNFLRKKLFFKTS
notes: Procaspase-9 overexpressed in E. coli, completely processed into p35 and p12 (greater than 90% at Asp315, about 10% at Asp330 giving p10, minor at Glu306); also called wild type caspase-9; processed caspase-9; not shown: C-terminal 6-Histidine tag from pET-21c or pET-28a
B8: binds [6].

B9: p10-GST: C-terminal GST fusion protein of caspase-9 p10 (residues 331-416 of SEQ ID NO:1) (protein)
chain: AISSLPTPSDIFVSYSTFPGFVSWRDPKSGSWYVETLDDIFEQWAHSEDLQSLLLRVANAVSVKGIYKQMPGCFNFLRKKLFFKTS
modifications: left off: a dimerising Fc or GST
B9 was tested, and the “interaction with full length XIAP” value [7] was “only weakly”, the “interaction with full length XIAP, fold less” value [7, 10] was 50 to 100 fold and the “interaction with isolated BIR3 domain of XIAP” value [8] was “only weakly”. For the same molecule, the “interaction with BIR3 domain, fold less” value [8, 10] was 50 to 100 fold and the “binding of XIAP by Far Western” value [2] was “not able to bind”.

B10: chemically synthesized caspase-9 linker peptide (ATPFQEGLRTFDQLD) (peptide)
peptide: ATPFQEGLRTFDQLD
Molecule B10 has a Kd [9] of 550 nM.

B11: Smac-N7 peptide (AVPIAQK) (peptide)
peptide: AVPIAQK
Molecule B11 has a Kd [9] of about 810 nM.

B12: p12: C-terminal GST fusion protein of Caspase-9-p12 (residues 316-416 of SEQ ID NO:1) (protein)
chain: ATPFQEGLRTFDQLDAISSLPTPSDIFVSYSTFPGFVSWRDPKSGSWYVETLDDIFEQWAHSEDLQSLLLRVANAVSVKGIYKQMPGCFNFLRKKLFFKTS
modifications: left off: a dimerising Fc or GST
For B12, the “interaction with full length XIAP” value [7] was “able to interact”, the “interaction with isolated BIR3 domain of XIAP” value [8] was “able to interact” and the “binding of XIAP by Far Western” value [2] was “able to bind”. For the same molecule, the “binding to E314S mutant BIR3” value [3] was “abrogated binding”.

Source: US20020160975A1, “Conserved XIAP-interaction motif in caspase-9 and Smac/DIABLO for mediating apoptosis” (Thomas Jefferson University, priority 2001, published 2002)
